The text below walks through data of publication doi:10.1101/2022.12.14.520423.

The target of the data set is T1, CLAMP (CLAMPmel) (Drosophila melanogaster, UniProt Q9V9N4 1-561).
T1 sequence: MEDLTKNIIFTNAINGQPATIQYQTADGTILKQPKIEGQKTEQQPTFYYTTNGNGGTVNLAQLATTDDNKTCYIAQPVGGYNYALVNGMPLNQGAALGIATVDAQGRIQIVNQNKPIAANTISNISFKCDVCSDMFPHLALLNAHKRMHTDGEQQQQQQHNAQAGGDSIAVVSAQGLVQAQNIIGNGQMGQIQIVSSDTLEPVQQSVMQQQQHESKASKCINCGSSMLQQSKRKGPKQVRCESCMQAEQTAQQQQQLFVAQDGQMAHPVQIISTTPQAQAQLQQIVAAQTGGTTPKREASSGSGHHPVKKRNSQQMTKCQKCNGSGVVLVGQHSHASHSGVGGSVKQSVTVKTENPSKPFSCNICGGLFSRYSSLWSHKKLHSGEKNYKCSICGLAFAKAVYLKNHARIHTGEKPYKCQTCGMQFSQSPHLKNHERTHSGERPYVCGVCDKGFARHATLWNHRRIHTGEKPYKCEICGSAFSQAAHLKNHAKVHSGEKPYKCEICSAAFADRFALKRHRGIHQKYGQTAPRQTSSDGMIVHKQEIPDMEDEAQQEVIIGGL
In words: EMSA. Background: A gel shift assay detects complexes by their altered migration in electrophoresis.

B1: Dvir 2 (dsDNA)
DNA 1: TACCAAAAACTCAAAAAGACGAGCGAGTGAAAACATATTTCCATCTCGCTCACATACTAC
DNA 2: GTAGTATGTGAGCGAGATGGAAATATGTTTTCACTCGCTCGTCTTTTTGAGTTTTTGGTA
On to B1, for which the binding result is “binds”.
